# Source: the Human Domainome abundance scans (Beltran et al. 2025)
# ± gives the uncertainty stated by the source.
# B1: E3 ubiquitin-protein ligase TRIM36, residues 208 to 252; numbered along this chain, Q9NQ86 (parent)
# chain: KILMCPEHETERINMYCELCRRPVCHLCKLGGNHANHRVTTMSSA
# Variants of: B1
# Experiment: abundance fitness (aPCA) (normalised: wild type 0, dead -1); higher = more abundant; growth selection in yeast, the domain comes from the species named
# Conditions: Homo sapiens
row,Variant,abundance fitness
1,KILMCPEHETERINMYCELCRRPVCHLCKLGGDHANHRVTTMSSA,0.007 ± 0.062
2,KILMCPEHETERINMYRELCRRPVCHLCKLGGNHANHRVTTMSSA,-0.909 ± 0.086
3,KILFCPEHETERINMYCELCRRPVCHLCKLGGNHANHRVTTMSSA,0.188 ± 0.12
4,KILMCPEHETERINMYCELCRRPVCHLCKLGGNHANHRATTMSSA,0.079 ± 0.048
5,KILMCPEHETERINMYCELCRRPVCHLCKLGCNHANHRVTTMSSA,-0.132 ± 0.06
6,KILMCPEHETERINMYCELCRRPVCHLCKLGGNHANHRVTTMSSL,-0.156 ± 0.17
7,KILMCPEHETERINMYCELCRHPVCHLCKLGGNHANHRVTTMSSA,0.013 ± 0.23
8,KILMCPEHETERINMYCELGRRPVCHLCKLGGNHANHRVTTMSSA,-0.595 ± 0.054
9,KILMCPEHEPERINMYCELCRRPVCHLCKLGGNHANHRVTTMSSA,-0.015 ± 0.082
10,KILMCVEHETERINMYCELCRRPVCHLCKLGGNHANHRVTTMSSA,-0.069 ± 0.07
11,KILMCPEHETERINMYCELCRRPVCHLCKLGGNHAWHRVTTMSSA,-0.299 ± 0.051
12,KILMCPEHETERINMYCELCRRPVCHLCKLGTNHANHRVTTMSSA,-0.07 ± 0.056
13,KILMCPEHETERINMYCELCRRPVCHLCKYGGNHANHRVTTMSSA,-0.549 ± 0.14
14,KILMCPEHETERINMYCELCRRPVCHLCKLGWNHANHRVTTMSSA,-0.297 ± 0.058
15,KILMCPEHETEDINMYCELCRRPVCHLCKLGGNHANHRVTTMSSA,-0.539 ± 0.18
16,KILMCPEHETERINMYCELCRRPVCHLCKLGGNHANHRYTTMSSA,-0.184 ± 0.1
17,KILMCPEHETERINMYCELCRWPVCHLCKLGGNHANHRVTTMSSA,-0.34 ± 0.079
18,KILMCPEHETERINEYCELCRRPVCHLCKLGGNHANHRVTTMSSA,-0.024 ± 0.13
19,KILMCPEHETMRINMYCELCRRPVCHLCKLGGNHANHRVTTMSSA,-0.322 ± 0.13

row,Variant,abundance fitness
1,KILMCPEHETERINMYCKLCRRPVCHLCKLGGNHANHRVTTMSSA,-0.172 ± 0.071
2,KILMCPEHETERINMYCELCRRPVCHLCKLGGNHHNHRVTTMSSA,-0.149 ± 0.098
3,KILMCPEHETERINMYCELCRRPVCHLAKLGGNHANHRVTTMSSA,-0.672 ± 0.079
4,KILMCPEHETERINMYCELCRRPVCHLMKLGGNHANHRVTTMSSA,-0.723 ± 0.13
5,KILMCPEHETERINMYCELCRRKVCHLCKLGGNHANHRVTTMSSA,-0.146 ± 0.059
6,KILMCPEHETERINMYCELCRRPVCHLCKLGGNGANHRVTTMSSA,-0.288 ± 0.049
7,KILMCPEHETERINMYCELCRRPVCHLCQLGGNHANHRVTTMSSA,0.019 ± 0.074
8,KILMCPEHETERINMYCELCRRPVCHLCKLLGNHANHRVTTMSSA,-0.259 ± 0.049
9,KILMCPEHSTERINMYCELCRRPVCHLCKLGGNHANHRVTTMSSA,0.07 ± 0.057
10,KILMCPEHETERINMYCELCRRPVCHLCKLGGNHANHRVTTMDSA,-0.063 ± 0.093
11,KILMCPEHETERINMYCELCRRPVCHLCKLGGFHANHRVTTMSSA,-0.125 ± 0.092
12,KILMCPEHETERINMYCELCRRPVCQLCKLGGNHANHRVTTMSSA,0.045 ± 0.063
13,KILMCPEHETERINMYCELCRRPVCHLCKLGGNHANHRVTTMWSA,-0.352 ± 0.066
14,KILMCPEDETERINMYCELCRRPVCHLCKLGGNHANHRVTTMSSA,-0.858 ± 0.089
15,KILMCPEHETERINMYPELCRRPVCHLCKLGGNHANHRVTTMSSA,-0.705 ± 0.12
16,KILMCPEHEMERINMYCELCRRPVCHLCKLGGNHANHRVTTMSSA,-0.038 ± 0.069
17,KILMCPEHETERINMYCELCRRPVCHLCKLGGYHANHRVTTMSSA,-0.153 ± 0.066
18,KILMCPEHETERINMYCELCRRPVCHLCKLGGNRANHRVTTMSSA,-0.541 ± 0.048
19,KTLMCPEHETERINMYCELCRRPVCHLCKLGGNHANHRVTTMSSA,-0.097 ± 0.056

row,Variant,abundance fitness
1,KILMCPEHETERINMYCELCRRPVCHLPKLGGNHANHRVTTMSSA,-0.579 ± 0.088
2,KILMCPEHETERINMYCELCRRQVCHLCKLGGNHANHRVTTMSSA,-0.1 ± 0.071
3,KILMCPEHELERINMYCELCRRPVCHLCKLGGNHANHRVTTMSSA,-0.142 ± 0.058
4,KILMCPEHETERINMYCELCRRPWCHLCKLGGNHANHRVTTMSSA,-0.351 ± 0.056
5,KIFMCPEHETERINMYCELCRRPVCHLCKLGGNHANHRVTTMSSA,-0.04 ± 0.19
6,KILMCPEHETERINMYCELCRMPVCHLCKLGGNHANHRVTTMSSA,-0.163 ± 0.086
7,KILMFPEHETERINMYCELCRRPVCHLCKLGGNHANHRVTTMSSA,-1.08 ± 0.16
8,KILMCPEHETWRINMYCELCRRPVCHLCKLGGNHANHRVTTMSSA,-0.52 ± 0.13
9,KILMCPEHETERINMYCELCRRPVCHLCKLGGNHENHRVTTMSSA,0.009 ± 0.075
10,KILMKPEHETERINMYCELCRRPVCHLCKLGGNHANHRVTTMSSA,-0.688 ± 0.074
11,KILMCPEHETERINMYCELCRRPVCHLCKLGGNHANHVVTTMSSA,0.036 ± 0.055
12,KILMCPEHETERINMYCEDCRRPVCHLCKLGGNHANHRVTTMSSA,0.021 ± 0.077
13,KILMCPEHETERINMYCELCRRPVCHLCKLGGNHANHRVTKMSSA,0.007 ± 0.06
14,KILMCPEHETERINMYCELCRRPSCHLCKLGGNHANHRVTTMSSA,-0.446 ± 0.059
15,KILMMPEHETERINMYCELCRRPVCHLCKLGGNHANHRVTTMSSA,-1.02 ± 0.12
16,KILMQPEHETERINMYCELCRRPVCHLCKLGGNHANHRVTTMSSA,-0.996 ± 0.082
17,KILMCPEHETERINMYCELCCRPVCHLCKLGGNHANHRVTTMSSA,-0.083 ± 0.081
18,KILMCPEHETERINMYCELVRRPVCHLCKLGGNHANHRVTTMSSA,-0.789 ± 0.059
19,KILMCPEHETERRNMYCELCRRPVCHLCKLGGNHANHRVTTMSSA,-0.143 ± 0.12
